{"source": "paper PMC6145371", "biological_target": "tau repeat domain (TauRD) conjugated to cerulean fluorescent protein (CFP) or yellow fluorescent protein (YFP)", "test": "FRET or BRET; HEK293 biosensor cells with TauRD-CFP and TauRD-YFP; samples holding tau seeds (rTg4510 brain lysate 12 h, cell or microglia lysate 36 h, microglia conditioned media 72 h) added with 1% Lipofectamine; CFP to YFP FRET read by flow cytometry as integrated FRET density, normalised to cells given Lipofectamine only", "data": [{"substance": "tau repeat domain (TauRD) conjugated to cerulean fluorescent protein (CFP) or yellow fluorescent protein (YFP)", "values": [{"measurement": "normalized integrated FRET density (cells given rTg4510 microglia lysate) (normalized IFD)", "result": 308}, {"measurement": "normalized integrated FRET density (cells given rTg4510 non-microglia cell lysate) (normalized IFD)", "result": 3570}]}]}
